From patent publication US20060078875A1, “Genetic selection of small molecule modulators of protein-protein interactions” (The Penn State Research Foundation, priority 2004, published 2006)
Each block holds one molecule with its values, some of them ahead of it. Ends that are not written are not given here. Peptide text beside a SMILES is read from it.

What was measured:
ATIC homodimer = target: T1, ATIC homodimer (Gallus gallus, UniProt P31335); experiment: ATIC RTHS ranking by spotting serial dilutions on selective media; assay type: cell-based; conditions: cyclic peptides in order of biological activity (1 = most active)
T1 construct: expressed in transfected cells; host or cells: E. coli RTHS strain with the ATIC fusion integrated on the chromosome
T1 sequence (P31335 1-593): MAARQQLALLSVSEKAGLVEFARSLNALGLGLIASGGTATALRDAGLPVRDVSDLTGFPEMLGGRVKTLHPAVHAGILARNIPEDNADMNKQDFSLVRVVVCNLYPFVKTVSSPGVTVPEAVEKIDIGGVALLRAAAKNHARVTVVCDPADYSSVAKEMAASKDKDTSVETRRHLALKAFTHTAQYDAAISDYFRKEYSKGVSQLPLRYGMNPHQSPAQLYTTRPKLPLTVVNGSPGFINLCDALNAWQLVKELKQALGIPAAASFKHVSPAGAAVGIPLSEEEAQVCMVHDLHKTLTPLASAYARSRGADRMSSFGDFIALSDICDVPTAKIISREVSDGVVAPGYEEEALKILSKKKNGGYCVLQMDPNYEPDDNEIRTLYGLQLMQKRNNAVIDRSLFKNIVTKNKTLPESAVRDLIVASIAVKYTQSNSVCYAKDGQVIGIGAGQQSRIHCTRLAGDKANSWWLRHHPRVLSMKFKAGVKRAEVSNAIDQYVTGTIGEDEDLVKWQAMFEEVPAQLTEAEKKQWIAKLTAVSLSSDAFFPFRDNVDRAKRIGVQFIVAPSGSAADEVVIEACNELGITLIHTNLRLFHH
Experimental: ATIC was cloned as a fusion with the bacteriophage 434 repressor DNA binding domain (into pTHCP16, FIG. 1B) such that expression of the repressor-ATIC fusion placed under control of an isopropyl β-D-thiogalactoside (IPTG) inducible promoter. […] In order to improve selection conditions, a new RTHS strain was constructed by integrating the ATIC fusion onto the chromosome. The level of IPTG giving optimal repression was determined to be 50 μM by β-galactosidase assays.
The first SICLOPPS library transformed into the selection strain encoded a hexapeptide with five random residues and a cysteine nucleophile. Approximately 10^7 transformants were plated onto histidine-free minimal media supplemented with arabinose, (inducer for SICLOPPS) 3-amino-1,2,4-triazole (3-AT, competitive inhibitor of HIS3 product) and kanamycin at a density of 10^6 per plate (100×15 mm). The plates were incubated until colonies were readily visible (approximately one in 10^5). A second library encoding an octapeptide with five random residues and an invariable SGW motif was also tested (not shown). Around 200 colonies were picked and screened for arabinose dependent growth advantage and IPTG dependent inhibition of growth to eliminate false positives. The expected phenotype was further confirmed by isolating and retransforming the selected SICLOPPS plasmids into the selection strain. The 14 remaining cyclic peptides were then ranked for activity by spotting serial dilutions of the corresponding cells onto selective media, allowing the conferred growth advantage to be compared at each dilution level.
SICLOPPS libraries were transformed into E. coli strains containing integrated reporter and repressor constructs. Transformants were washed with minimal media A and plated on minimal media A supplemented with 13 μM L-(+)-arabinose, 2.5 mM 3-amino-1,2,4-triazole, 25 μM kanamycin and 50 μM IPTG. After incubation at 37° C. for 3-4 days, surviving colonies were restreaked onto the same media with and without arabinose. Plasmids from selected strains whose growth depended on the presence of arabinose were retransformed into the original selection strain and checked for phenotype retention. The variable insert regions on SICLOPPS plasmids were PCR-amplified, and their DNA sequence determined.

ribonucleotide reductase = target: T2, ribonucleotide reductase (Mus musculus, UniProt P07742+P11157); experiment: RTHS β-galactosidase (lacZ) assay, ribonucleotide reductase fusion in strain SNS126; assay type: cell-based, murine; conditions: for Effect on the lacZ reporter upon arabinose induction: arabinose induction of peptide expression; for Effect on the lacZ reporter upon arabinose induction / lacZ repression relief: 100 μM IPTG; for lacZ repression relief: background level of peptide expression
T2 construct: expressed in transfected cells; host or cells: E. coli strain SNS126 (integrated via pAH68)
T2 sequence (P07742 1-792): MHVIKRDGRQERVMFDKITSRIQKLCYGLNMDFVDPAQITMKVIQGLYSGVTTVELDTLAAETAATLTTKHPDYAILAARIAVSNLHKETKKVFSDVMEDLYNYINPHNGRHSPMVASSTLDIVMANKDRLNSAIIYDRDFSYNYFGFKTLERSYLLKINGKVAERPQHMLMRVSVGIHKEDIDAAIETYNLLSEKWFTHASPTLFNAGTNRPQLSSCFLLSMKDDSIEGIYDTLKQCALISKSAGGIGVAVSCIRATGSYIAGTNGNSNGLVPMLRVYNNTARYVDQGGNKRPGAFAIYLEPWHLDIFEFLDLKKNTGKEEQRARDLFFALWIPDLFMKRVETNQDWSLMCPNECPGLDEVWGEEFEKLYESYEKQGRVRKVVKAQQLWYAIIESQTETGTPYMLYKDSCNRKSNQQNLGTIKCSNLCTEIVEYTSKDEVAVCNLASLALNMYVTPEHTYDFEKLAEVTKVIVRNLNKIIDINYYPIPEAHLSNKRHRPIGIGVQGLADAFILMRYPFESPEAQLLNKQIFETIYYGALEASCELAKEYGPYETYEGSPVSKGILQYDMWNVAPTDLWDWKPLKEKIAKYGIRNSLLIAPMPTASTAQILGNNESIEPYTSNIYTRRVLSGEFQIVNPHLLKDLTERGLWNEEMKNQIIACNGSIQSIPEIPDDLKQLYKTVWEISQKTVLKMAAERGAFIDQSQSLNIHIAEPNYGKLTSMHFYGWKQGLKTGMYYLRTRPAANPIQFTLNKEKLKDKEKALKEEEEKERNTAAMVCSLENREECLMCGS
T2 sequence (P11157 1-390): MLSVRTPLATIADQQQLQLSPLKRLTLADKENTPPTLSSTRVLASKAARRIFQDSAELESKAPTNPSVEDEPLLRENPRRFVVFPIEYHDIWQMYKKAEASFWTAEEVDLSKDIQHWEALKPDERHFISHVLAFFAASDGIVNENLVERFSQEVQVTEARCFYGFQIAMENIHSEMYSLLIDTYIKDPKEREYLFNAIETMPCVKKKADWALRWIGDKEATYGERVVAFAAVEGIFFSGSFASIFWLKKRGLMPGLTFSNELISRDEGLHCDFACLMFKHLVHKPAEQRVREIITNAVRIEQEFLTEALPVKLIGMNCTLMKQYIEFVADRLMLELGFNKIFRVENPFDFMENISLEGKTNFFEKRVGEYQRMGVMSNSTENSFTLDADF
From the text: FIG. 4 has two graphs (A and B) of β-galactosidase assays showing the effect of linear peptide inhibitors on the oligomeric state of HIV-1 protease and ribonucleotide reductase.
Positive (unrepressed strain) and negative (SICLOPPS control plasmid) controls are provided as reference points. […] FIG. 7C is a graph of competition ELISA results that compare the binding affinity of the four linear peptides with P8 control. FIG. 7D illustrates an exemplary solid phase synthesis of cyclic peptides. First, an activated disulfide resin is prepared through the protection of the thiol group of 3-mercaptopropionic acid, followed by coupling to an amino-PEGA resin. Next, a linear peptide is attached via a cysteine residue and cyclized with 1-ethyl-3-(3′-dimethylaminopropyl)carbodiimide (EDC) and 1-hydroxy-7-azabenzotriazole (HOAt) in DMF. Finally, reductive cleavage with tris-2-carboxyethylphosphine (TCEP) releases the cyclized peptide.
pTHCP30. […] ribonucleotide reductase subunit R1 was PCR amplified from a Bacuolovirus expression plasmid [Caras et al. (1985) J. Biol. Chem. 260:7015-7022] and cloned into SalI and SacI sites on pTHCP14, and subunit R2 was PCR amplified from pET3a-R2 and cloned onto pTHCP14-R1 plasmid at XhoI and KpnI sites [Mann et al. (1991) Biochemistry 30:1939-1947].
Overlapping oligonucleotides encoding […] (methionine plus eight R2 subunit C-terminal residues) (SEQ ID:15) were cloned into NcoI and XbaI sites on arabinose expression plasmid pAR [Perez-Perez et al. (1995) Gene 158:141-142].
Towards this goal, both enzyme complexes were probed with known linear peptidic inhibitors. These peptides are a C-terminal hexapeptide (FIG. 4A, pHIV16) for HIV protease that inhibits the essential β-sheet interactions [Schramm al. (1996) Antiviral Res. 30:155-170], and a heptapeptide for ribonucleotide reductase (pTHCP35, FIG. 4B) that competes with binding between subunits mR1 and mR2 [Yang et al. (1990) FEBS Lett. 272:61-64].
To address non-specific effects of selectants on host growth rates, three of the selective peptides (RR93, RR127, RR130) and the less discriminating RR133 were subjected to quantitative expression studies using the lacZ reporter of the RTHS. […] These studies necessitated in vitro analysis to decipher the inhibition mechanism of these four selectants.

[1] = target: T3, ribonucleotide reductase large subunit (mR1) (Mus musculus, UniProt P07742); experiment: Immobilized peptide binding/competition ELISA with mR1; design: species or system murine; conditions: P8 immobilized on maleimide plates
T3 construct: made in house; host or cells: E. coli BL21(λDE3) Rosetta, pET28a-MR1
T3 sequence (P07742 1-792): T2 sequence (P07742 1-792)
Experimental: (§1) FIG. 8B provides the results of an immobilized P8 ELISA.
(§2) Two variations of solid phase binding assays were used for analyzing the binding of peptide inhibitors to ribonucleotide reductase subunits: i) protein competition ELISA where peptides were competing with mR1 for binding to immobilized mR2, ii) binding and competition ELISA with covalently immobilized ligands. In general, the solid phase assays were performed in microtiter plates (MaxiSorp, Nunc) or strip units (Reacti-Bind™ Maleimide Activated Clear Strip Plates, Pierce) involving continuous agitation in Junior Orbit Shaker (Lab-line Instruments) at medium speed during all of the incubation steps. Sample volumes were 100 μL, unless specified otherwise. Following coating, blocking step was conducted by incubating pre-loaded wells with 5% bovine serum albumin in PBS for 1 h at room temperature. Wash procedures between any two successive incubations involved three washes with 200 μL of 0.5% Tween-20 in PBS (PBST), with the second wash involving a 5 min incubation. Detection of His-tagged proteins was performed with Ni·NTA-HRP conjugate (Qiagen) according to the manufacturer instructions.
(§3) Peptides (200 nmol per well) in 10% DMF/50 mM Tris·HCl (pH 7.5) with 1 mM TCEP were reacted for 2 h at room temperature with maleimide-derivatized polystyrene wells. The unreacted sites were blocked by incubating wells with 5 μM cysteine in 50 mM Tris·HCl (pH 7.5) for 30 min. Following washing and blocking steps, the wells were incubated with His-tagged mR1 or mR2 in the presence or absence of inhibitors. The retained protein was detected via Ni·NTA-HRP conjugate.
(§4) To determine the mechanism of action of the four identified sequences an alternative assay format was devised (FIG. 8A), where a peptide with a residual activity in its immobilized form can serve as a specific ligand for receptor capture in both binding and competition ELISA. The success of such an assay relies on both efficient peptide immobilization strategy and sufficient level of affinity, uncompromised by this display strategy. The peptide immobilization becomes feasible through implementation of a cysteine, a nucleophile used in splicing, as a universal chemoselective handle allowing covalent attachment strategy through a suitable electrophile. Chemoselective attachment of such peptides on appropriately derivatized surfaces should both display the small molecules for detection with a suitable protein receptor and allow binding site competition analysis, not unlike in a traditional immunosorbent format.

[2] = target: T4, ribonucleotide reductase small subunit (mR2) (Mus musculus, UniProt P11157); experiment: Immobilized c-RR130 binding/competition ELISA with mR2; design: species or system murine; conditions: data not shown
T4 construct: made in house; host or cells: E. coli BL21(λDE3), pET28a-MR2
T4 sequence (P11157 1-390): T2 sequence (P11157 1-390)
Experimental: as §1, §2, §3, §4

avian ATIC (AICAR Tfase) = target: T5, avian ATIC (AICAR Tfase) (Gallus gallus, UniProt P31335); experiment: AICAR Tfase assay
T5 sequence (P31335 1-593): T1 sequence (P31335 1-593)
Experimental: All assays were performed using a Varian Cary 100 Spectrometer. All reaction mixtures were 500 μl in volume and carried out in 1 cm pathlength quartz cuvettes at 25° C. The enzyme used in all of the inhibition studies was avian ATIC, fused to a N-terminal 6× histidine tag to facilitate purification. […] The peptides were dissolved in DMSO to a final concentration of 2.5 mM.
84 nM of ATIC, 50 μM of 10-f-THF and various quantities of inhibitor were mixed in the assay buffer (32.5 mM Tris-HCl, 25 mM KCl, pH 7.4). The mixture was incubated at 25° C. for 2 min before initiating the reaction by addition of 20 μM AICAR. The reaction was monitored by measuring the increase in absorbance due to formation of tetrahydrofolate at 298 nm.
The peptides were assumed to be competing with f-10-THF, which binds to ATIC and stabilizes its dimerization.

Activity Rank (ATIC homodimer): 3
Molecule: P V L L L C (PVLLLC) [c-26]

Activity Rank (ATIC homodimer): 3
Molecule: S M M V L C (SMMVLC) [c-15]

Activity Rank (ATIC homodimer): 2
Molecule: R I L Q L C (RILQLC) [c-8]

Activity Rank (ATIC homodimer): 3
Molecule: T V L M F C (TVLMFC) [c-6]

Effect on the lacZ reporter upon arabinose induction (ribonucleotide reductase): arabinose-dependent repression
lacZ repression relief (ribonucleotide reductase): observable repression relief
Disruption of / competition with immobilized P8·mR1 complex [1]: none
Competition with the c-RR130·mR2 complex [2]: competed
Molecule: RYYNV (cyclo(RYYNV); not fully specified) [RR130]

Activity Rank (ATIC homodimer): 3
Molecule: M L L I V C (MLLIVC) [c-25]

Activity Rank (ATIC homodimer): 2
Molecule: R F F I C C (RFFICC; also: cyclic peptide, ring type not given here) [c-4]

Effect on the lacZ reporter upon arabinose induction (ribonucleotide reductase): further enhanced
lacZ repression relief (ribonucleotide reductase): observable repression relief
Disruption of / competition with immobilized P8·mR1 complex [1]: none
Competition with the c-RR130·mR2 complex [2]: competed
Molecule: HRYVF (cyclic, SICLOPPS-expressed; Ribonucleotide reductase inhibitor peptide) [RR133]

Activity Rank (ATIC homodimer): 3
Molecule: R I L V L C (RILVLC) [c-5]

Ki (avian ATIC (AICAR Tfase)): 173 ± 28.4 µM
Molecule: WMFLNVSG [l-151]

Effect on the lacZ reporter upon arabinose induction (ribonucleotide reductase): further enhanced
lacZ repression relief (ribonucleotide reductase): observable repression relief
Disruption of / competition with immobilized P8·mR1 complex [1]: none
Competition with the c-RR130·mR2 complex [2]: competed
Molecule: GVRFF (cyclic, SICLOPPS-expressed; Ribonucleotide reductase inhibitor peptide) [RR127]

Repression of the lacZ reporter (ribonucleotide reductase; peptide co-expressed with ribonucleotide reductase fusion): relieved repression
Molecule: MSFTLDADF [pTHCP35, reference compound]

Ki (avian ATIC (AICAR Tfase)): 142 ± 22.5 µM
Molecule: RYFNVC [l-1a, RYFNVC]

Ki (avian ATIC (AICAR Tfase)): 59 ± 6.8 µM
Activity Rank (ATIC homodimer): 1
Molecule: CSCC[C@@H]1NC(=O)[C@H](Cc2c[nH]c3ccccc23)NC(=O)CNC(=O)[C@H](CO)NC(=O)[C@H](C(C)C)NC(=O)[C@H](CC(N)=O)NC(=O)[C@H](CC(C)C)NC(=O)[C@H](Cc2ccccc2)NC1=O [c-151, M F L N V SGW] (cyclo(WMFLNVSG))

Effect on the lacZ reporter upon arabinose induction (ribonucleotide reductase): further enhanced
lacZ repression relief (ribonucleotide reductase): observable repression relief
Molecule: YTWSY (cyclo(YTWSY); not fully specified) [RR93]
